The values below come from publication doi:10.1101/2025.07.08.663703, “Recruitment of Mre11 to recombination sites during meiosis” (bioRxiv, 2025).

The subject of test [1] is Mer2. Nature of the test: Co-expression NiNTA pulldown of MBP-Mre11-C49 (prey) with HisSUMO-Mer2 (bait). The test is classed as binding, S. cerevisiae. Conditions: co-expression in E. coli, anti-MBP elution/input signal normalized to wild type, at least seven independent samples. The source says:
The vector for expression of ^MBPMre11-C49 and ^HisSUMOMer2 (pCCB1040) was based on a pET-Duet1 vector with the sequence coding for ^MBPMre11-C49 cloned within the first position (SacI site) and the sequence coding for ^HisSUMOMer2 cloned at the second position (XhoI site). The EQEK mutations and LLK mutations were introduced by PCR amplification of pCCB1040 with primers cb1561 and cb1562, and pp84 and pp85, followed by phosphorylation and self-ligation to yield plasmids pry59 and pry61, respectively.
Wild-type and mutant MBP-tagged Mre11-C49 and HisSUMO-tagged Mer2 were co-expressed in 50 mL of E. coli BL21 cultures and purified by affinity chromatography on Ni-NTA resin following a procedure similar to that described above. Briefly, cells were lysed by sonication and centrifuged at maximum speed for 30 mins at 4°C on a table-top centrifuge. A small fraction of the supernatant was collected as ‘Input’ and the remainder was incubated with 120 μL Ni-NTA resin, pre-equilibrated with wash buffer (25 mM HEPES pH 7.5, 20 mM imidazole, 0.1 mM DTT, 0.1 mM PMSF, 10% glycerol), for 1 hour on a rotating wheel at 4°C. The resin was washed twice with 2 ml in batch and five times with 2 ml on column before eluting with 250 μL of 500 mM imidazole in wash buffer. […]

Test [2] concerns Mer2. Nature of the test: In vitro colocalization of Mre11 with Mer2 condensates. It is filed as binding, S. cerevisiae. The following applies: 200 nM Alexa594Mer2 and eGFPMre11, assembled separately on DNA then mixed 1:1 for 30 min. On the procedure:
Proteins were diluted to a 10× stock of their appropriate working concentrations in their respective storage buffers. […] Unless specified otherwise, all reactions contained 400 nM ^Alexa488Mre11 or 100 nM ^eGFPMRX. A typical 20 μL binding reaction contained 2 μL protein of 10× stock of indicated concentration, 10 μL of 2× reaction buffer, and 150 ng of supercoiled pUC19 (5.7 nM). Typical reactions were assembled at 30°C for 30 mins with gentle mixing every 5 mins, unless mentioned otherwise. 5 μL was dropped onto a microscope slide and covered with a coverslip. All images were captured on a Zeiss Axio Observer with a 100×/1.4 NA oil immersion objective except for images provided in Figure 4G which were captured on Leica Stellaris DMI 8 confocal microscope with a 63x/1.2 NA water immersion objective. Images were analyzed with ImageJ using a custom-made script. In brief, 129.24 × 129.24-μm (2048 × 2048-pixel) images were thresholded to mean intensity of the background plus three times the standard deviation of the background. Masked foci were counted and the intensity inside the focus mask was integrated. Data points represent averages of at least 8–10 images per sample. Data were analyzed using Graphpad Prism 10.4.0.

For test [3], the system named is pUC19 plasmid. In words: Gel shift assay of Mre11 and truncations. The test is classed as binding. How it is done:
Proteins were diluted to their appropriate working concentrations in their respective storage buffers. […] Reactions were assembled at 30°C for 30 mins and resolved in a 1% agarose (SeaKem LE Agarose, Lonza) at 60 V for 120 mins at 4°C. Gels were stained with SYBR Gold Nucleic Acid Gel Stain (S11497, Invitrogen) for 40 mins and visualized with Amersham Typhoon biomolecular imager (Cytiva).
Background: In EMSA bound probe runs differently from free probe, usually more slowly.

Test [4] deals with plasmid DNA (pUC19). In words: In vitro condensation of Mre11 truncations with plasmid DNA. The following applies: eGFP-tagged protein, 200 nM Mre11 for ΔIDR and ΔC49. On the procedure: Proteins were diluted to a 10× stock of their appropriate working concentrations in their respective storage buffers. Reactions were performed in a buffer containing 25 mM HEPES-HCl (pH 7.5), 2 mM DTT, 1 mg/ml BSA, 5% glycerol, 5 mM MgCl2, 5% PEG-3350, and NaCl. Considering the salt contributed by the protein dilution buffer, final concentration of NaCl in a reaction was adjusted to 120 mM. Unless specified otherwise, all reactions contained 400 nM ^Alexa488Mre11 or 100 nM ^eGFPMRX. A typical 20 μL binding reaction contained 2 μL protein of 10× stock of indicated concentration, 10 μL of 2× reaction buffer, and 150 ng of supercoiled pUC19 (5.7 nM). Typical reactions were assembled at 30°C for 30 mins with gentle mixing every 5 mins, unless mentioned otherwise. 5 μL was dropped onto a microscope slide and covered with a coverslip. All images were captured on a Zeiss Axio Observer with a 100×/1.4 NA oil immersion objective except for images provided in Figure 4G which were captured on Leica Stellaris DMI 8 confocal microscope with a 63x/1.2 NA water immersion objective. Images were analyzed with ImageJ using a custom-made script. […] Masked foci were counted and the intensity inside the focus mask was integrated. […] Data were analyzed using Graphpad Prism 10.4.0.

B1: Mer2-EQEK: Mer2 with residues E50, Q54, E57, and K61 mutated to alanine (protein)
chain: MVARGRTDEISTDVSEANSEHSLMITETSSPFRSIFSHSGKVANAGALEASDKAILAWAGALELESMELRENSDKLIKVLNENSKTLCKSLNKFNQLLEQDAATNGNVKTLIKDLASQIENQLDKVSTAMLSKGDEKKTKSDSSYRQVLVEEISRYNSKITRHVTNKQHETEKSMRCTQEMLFNVGSQLEDVHKVLLSLSKDMHSLQTRQTALEMAFREKADHAYDRPDVSLNGTTLLHDMDEAHDKQRKKSVPPPRMMVTRSMKRRRSSSPTLSTSQNHNSEDNDDASHRLKRAARTIIPWEELRPDTLESEL
modifications: left off: His, end not stated, kept | SUMO, end not stated, kept
notes: Mer2 with residues E50, Q54, E57, and K61 mutated to alanine
Turning to B1, the “interaction of Mre11-C49 and Mer2 in pulldown (anti-MBP immunoblot)” value in test [1] is recorded as “strongly decreased the interaction between the two partners”.

B2: Mre11 (protein)
chain: MDYPDPDTIRILITTDNHVGYNENDPITGDDSWKTFHEVMMLAKNNNVDMVVQSGDLFHVNKPSKKSLYQVLKTLRLCCMGDKPCELELLSDPSQVFHYDEFTNVNYEDPNFNISIPVFGISGNHDDASGDSLLCPMDILHATGLINHFGKVIESDKIKVVPLLFQKGSTKLALYGLAAVRDERLFRTFKDGGVTFEVPTMREGEWFNLMCVHQNHTGHTNTAFLPEQFLPDFLDMVIWGHEHECIPNLVHNPIKNFDVLQPGSSVATSLCEAEAQPKYVFILDIKYGEAPKMTPIPLETIRTFKMKSISLQDVPHLRPHDKDATSKYLIEQVEEMIRDANEETKQKLADDGEGDMVAELPKPLIRLRVDYSAPSNTQSPIDYQVENPRRFSNRFVGRVANGNNVVQFYKKRSPVTRSKKSGINGTSISDRDVEKLFSESGGELEVQTLVNDLLNKMQLSLLPEVGLNEAVKKFVDKDEKTALKEFISHEISNEVGILSTNEEFLRTDDAEEMKALIKQVKRANSVRPTPPKENDETNFAFNGNGLDSFRSSNREVRTGSPDITQSHVDNESRITHISQAESSKPTSKPKRVRTATKKKIPAFSDSTVISDAENELGDNNDAQDDVDIDENDIIMVSTDEEDASYGLLNGRKTKTKTRPAASTKTASRRGKGRASRTPKTDILGSLLAKKRK
modifications: left off: Gal4 activation domain (from the vector pGAD-C1), end not stated, kept
As for B2, in test [2], the “colocalization with Mer2” value is “nearly absolute colocalization”.

B3: Mre11^IDR: eGFP-tagged Mre11-IDR (524-677) (protein, UniProt P32829 524-677, looked up, fragment)
chain: NSVRPTPPKENDETNFAFNGNGLDSFRSSNREVRTGSPDITQSHVDNESRITHISQAESSKPTSKPKRVRTATKKKIPAFSDSTVISDAENELGDNNDAQDDVDIDENDIIMVSTDEEDASYGLLNGRKTKTKTRPAASTKTASRRGKGRASRT
modifications: eGFP tag
In the case of B3, in test [3] (1 nM pUC19, 25 mM HEPES pH 7.5, 5 mM EDTA, 100 mM NaCl, 30°C 30 min, two independent experiments for truncations), the DNA binding result is recorded as “reduced DNA binding as compared to the WT or Mre11^ΔIDR”. For the same molecule, the “condensate formation in vitro” value in test [4] is “failed to form condensates”.

B4: Mre11-ΔC49: Mre11 with C-terminal 49 residues (residues 644–692) deleted (protein, UniProt P32829 1-643, looked up, fragment)
chain: MDYPDPDTIRILITTDNHVGYNENDPITGDDSWKTFHEVMMLAKNNNVDMVVQSGDLFHVNKPSKKSLYQVLKTLRLCCMGDKPCELELLSDPSQVFHYDEFTNVNYEDPNFNISIPVFGISGNHDDASGDSLLCPMDILHATGLINHFGKVIESDKIKVVPLLFQKGSTKLALYGLAAVRDERLFRTFKDGGVTFEVPTMREGEWFNLMCVHQNHTGHTNTAFLPEQFLPDFLDMVIWGHEHECIPNLVHNPIKNFDVLQPGSSVATSLCEAEAQPKYVFILDIKYGEAPKMTPIPLETIRTFKMKSISLQDVPHLRPHDKDATSKYLIEQVEEMIRDANEETKQKLADDGEGDMVAELPKPLIRLRVDYSAPSNTQSPIDYQVENPRRFSNRFVGRVANGNNVVQFYKKRSPVTRSKKSGINGTSISDRDVEKLFSESGGELEVQTLVNDLLNKMQLSLLPEVGLNEAVKKFVDKDEKTALKEFISHEISNEVGILSTNEEFLRTDDAEEMKALIKQVKRANSVRPTPPKENDETNFAFNGNGLDSFRSSNREVRTGSPDITQSHVDNESRITHISQAESSKPTSKPKRVRTATKKKIPAFSDSTVISDAENELGDNNDAQDDVDIDENDIIMVSTDEEDA
For the molecule B4, the “species of reduced electrophoretic mobility” value in test [3] (1 nM pUC19, higher protein concentration) is “absent”. Also, the “colocalization with Mer2” value in test [2] is recorded as “strongly reduced colocalization as compared to wild-type Mre11”. The “condensate formation in vitro” value in test [4] was “strongly reduced Mre11 foci intensity”.
